Consider one protein from paper PMC10939272, “Structural insights into the octamerization of glycerol dehydrogenase” (PLOS ONE, 2024).

This series deals with the molecule itself. The experiment in a line: crystal structure; hanging-drop vapor diffusion, 20°C, pH 4.2, with ZnCl2 and NAD+, soaked in glycerol; space group I422, 2.0 Å; octamer by non-crystallographic 2-fold and crystallographic 4-fold symmetry.

B1: Escherichia coli glycerol dehydrogenase (GDH), full-length (1-367) (enzyme, E. coli K12 MG1655, UniProt P0A9S5 1-367, looked up)
chain: MDRIIQSPGKYIQGADVINRLGEYLKPLAERWLVVGDKFVLGFAQSTVEKSFKDAGLVVEIAPFGGECSQNEIDRLRGIAETAQCGAILGIGGGKTLDTAKALAHFMGVPVAIAPTIASTDAPCSALSVIYTDEGEFDRYLLLPNNPNMVIVDTKIVAGAPARLLAAGIGDALATWFEARACSRSGATTMAGGKCTQAALALAELCYNTLLEEGEKAMLAAEQHVVTPALERVIEANTYLSGVGFESGGLAAAHAVHNGLTAIPDAHHYYHGEKVAFGTLTQLVLENAPVEEIETVAALSHAVGLPITLAQLDIKEDVPAKMRIVAEAACAEGETIHNMPGGATPDQVYAALLVADQYGQRFLQEWE
notes: glycerol dehydrogenase (GDH; EC 1.1.1.6) of E. coli K12 MG1655, full length, residues 1-367; Homo-octamer; Two protomers (Mol-A, Mol-B) lie in the asymmetric unit and the octamer is formed by crystallographic 4-fold symmetry; Crystallised with Zn2+ and NAD+ and soaked in glycerol; also called E. coli GDH; GDH^NAD∙Gly; source: E. coli BL21 (DE3), purified (Ni-IDA, size-exclusion chromatography)
Turning to B1, the stoichiometry N (commonly the number of molecules, sites or subunits per partner or assembly) came to 8.
